Key:
human eosinophils [1] = experiment: Agonist, antagonist and ligand-induced signal enhancing activity using shape change of human eosinophils (Example 21); type: cell-based; settings: antibody 10 μg/mL, FIG. 18
Description: Eosinophils were separated from human peripheral blood in the same manner as in Example 11. In this case, the step of adding the same amount of physiological saline for injection as the blood to the blood was omitted and the […] on Ficoll-Paque PREMIUM 1.084 (GE Healthcare). The isolated human eosinophils were suspended with D-PBS (−) (NACALAI TESQUE, Inc.) and a reaction was performed in a 5% CO2 incubator at 37° C. for 1 hour and 30 minutes.
Thereafter, the cells were seeded in a 96-well plate at 0.7×10^5 cells/well using 10% FBS-containing RPMI1640. Next, an isotype control antibody, the humanized Lym2 antibody LV0HV1, the anti-human CRTH2 antibody hu19A2 v52, ch8B1, ch3C12, or ch31A5 prepared in Example 9, or the commercially available anti-human CRTH2 antibody BM16 (Santa Cruz Biotechnology), or 301108 (R&D) was added thereto at a final concentration of 10 μg/mL to cause a reaction in a 5% CO2 incubator at 37° C. for 30 minutes. […]
Next, RPMI1640 containing either DKPGD2 (Cayman Chemical) or 10% FBS—was added thereto at a final concentration of 100 nM to cause a reaction in a 5% CO2 incubator at 37° C. for 60 minutes. […] The cells were washed twice with SM, and the shape change of eosinophils was analyzed in the same manner as in Example 19.

human eosinophils [2] = experiment: Reactivity against human eosinophils, flow cytometry; type: binding; settings: 0.12-10 μg/mL, 4° C., 1 hour; FIG. 8
Description: To human peripheral blood collected by adding a heparin sodium injection liquid, the same amount of physiological saline for injection as the human peripheral blood was added thereto and mixed with each other. 15 mL of Ficoll-Paque PREMIUM 1.084 (GE Healthcare) was added to a 50 mL centrifuge tube, 30 mL of the above described human peripheral blood diluted with physiological saline was overlaid thereon, and centrifugation was performed at room temperature and 1500 rpm for 30 minutes. […]
After the number of cells was counted, eosinophils were isolated by a negative selection method using CD16 MicroBeads, human (Miltenyi Biotec) according to the attached instructions. […]
After the cells were washed, CELL LAB Mouse Anti-Rat Kappa (kappa light chain specific) FITC (Beckman Coulter Inc.) diluted with SM was added to wells to which Lym2 antibody or BM16 was added and CELL LAB Goat Anti-Mouse IgG (γ chain specific) Fluorescein (FITC) Conjugate (Beckman Coulter Inc.) diluted with SM was added to wells to which 301108 was added at a final concentration of 10 μg/mL respectively to cause a reaction at 4° C. for 1 hour. The cells were washed again and suspended with SM, and the fluorescent intensity was analyzed by flow cytometry (BD Biosciences, FACS CantoII).

| Molecule | effect on shape change of eosinophils induced by DKPGD2 (human eosinophils [1]; DKPGD2 100 nM) | shape change of eosinophils in the absence of a ligand (agonist activity) (human eosinophils [1]; no DKPGD2) | reactivity against human eosinophils (human eosinophils [2]) |
| --- | --- | --- | --- |
| LV0HV1: humanized Lym2 antibody, VL LV0 (SEQ ID NO: 33), VH HV1 (SEQ ID NO: 51) (antibody, V domains shown) VH: EVQLVESGGGVVQPGRSLRLSCAASGFTFSNYYMAWVRQAPGKGLEWVATISYDGSSTYYRDSVKGRFTISRDNAKNSLYLQMNSLRAEDTATYYCARHRGYYYSGAGYFDYWGQGTMVTVSS VL: DIVMTQTPLSLPVTPGESASISCRSSQSLEYSDGYTYLEWYLQKPGQSPQVLIYGVSNRFSGVPDRFSGSGSGTDFTLKISRVEAEDVGVYYCFQATHDPLTFGQGTKLEIK | do not affect shape change | do not affect shape change | – |
| Lym2 antibody: rat anti-human CRTH2 monoclonal antibody from hybridoma Lym2, rat IgG2b; VH SEQ ID NO: 17, VL SEQ ID NO: 19 (antibody, listed as Rattus norvegicus, V domains shown) VH: EVQLVESGGGLVQPGRSMKLSCAASGFTFSNYYMAWVRQAPKKGLEWVATISYDGSSTYYRDSVKGRFTISRDNAKSTLYLQMDSLRSEDTATYYCARHRGYYYSGAGYFDYWGQGVMVTVSS VL: DVVLTQTPVSLSVTLGDQASISCRSSQSLEYSDGYTYLEWYLQKPGQSPQVLIYGVSNRFSGVPDRFIGSGSGTDFTLKISRVEPEDLGVYYCFQATHDPLTFGSGTKLEIK | – | – | stronger reactivity |

From US10100120B2, “Antibody which specifically binds to human CRTH2” (KYOWA HAKKO KIRIN CO., LTD, priority 2015, dated 2018)
